Test results from the domain aggregation screens of Martell et al. (2025).

Test: soluble fraction after stress (log2 fold change); higher = more stays soluble; pooled small domains, quantitative proteomics
Conditions: stress: 50 degC
How it was run: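 Pooled custom libraries of small protein domains were measured in a high-throughput format, with quantitative proteomics as the read-out. Each library was stressed at 50°C. Aggregation propensity is given as the base-two logarithm of the fold change in how much of each protein stays soluble after the stress. Higher values mean a larger share of the protein remains in solution.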

In order of rising “soluble fraction (log2)” value:
1. HMLTYPEHVRLRMIELRKTRSLSQSEFGTYLGLSYQTISSLELGRHEWSLAHIQTALLRFELPPNYF  -4.92
2. HMDIHSEEYILGQNIRKYRLRLGWSQADLSNAVDIDRADISKYENGAKGIMSSTLLRKFAKALGVSMDALM  -2.76
3. HMLMLTPGQIAQTLDVSTATVRRWSARYARHLSPNTPGKKRSYTVDDLAVLTRVRDLSATGTPLAQIDQAL  -2.02
4. HMAEPLYKQVKNKIIQNLTSDEWKPGSVIPSETKLAETYGVGVSTIRMAIGELVAARILIRRQGKGTFVSS  -1.85
5. HMLKPIHKDWSPNGDAKEILLKAGITEEFIQKELPEFIMYWSERNEESDIWNSKFIAHIRRRWGRFS  -1.14
6. HMRMSRSARLFDLLHILRSHRRAVSGQALAQQLGISIRTLYRDIASLQAQGAKIEGEPGVGYMLKP  -0.947
7. HMTHPAHLARIGALIRSARQHEGLTQAQLAELLGTSQSAIHRIEQGGQNITLDMLTRISAALDSEIVTIG  -0.921
8. HMNIVINVDTPTFEQMKATYQAPGTLPAGASFHAKLKGVTVTGYTKSHKVMFQGALANQEAARWQ  -0.92
9. HMKKKLPRYLQEQKYGNGMVFYRYNPTARYIDEGIVTRTNLGSDLSIAKKKANEFNKLIDAFLQQQSE  -0.92
10. HMRWSDQKEIVTLSLDHVLVEKGRKTKEYSWREFRTFTAFEIKKSSKDQINLGFKSKGNTVIIGNF  -0.919
11. HMKNQIGFKIKNARRKASISQADLSAKLGISSSYLNLIESGKRNVNVDLLLKVSDVLNIELKDLSK  -0.781
12. HMELNDEELIKGIQELLTKIGYDPGEINGVLGIKTSSAISAFQQSRNKAITGEADLDLLVQLQIELRKITT  -0.674
13. HMDEEDVLNELIRRLALTADDRLLLSLSYEDGLSSRKIATLLETSAATVQRRLAGLHHQLEQALRVMGLA  -0.454
14. HMLTLDEKRRLQIMRVQVALTSLGLYNGRVDGVLNAETKLGLEFFQDLKGLPKSGTMTTPTLNALGVPA  -0.423
15. HMLDSNILTLIKELKIRHHFTATQTHQLEKVIQQAHALGLDNSEIRSLANSSPSAKSLINDLNQKLEPLRL  -0.398
16. HMDEPGAGYKWREDVLLRVMASHGIEESLRDDFVRHAVGFDNDDNMYLKKVEIENAAAAWVAN  -0.377
17. HMWKSEAGKKIIESLAQKYNKSNAQIILRWHIQMGYIVIPGARSENHIKENINIFDFKLTNEEINNILKLN  -0.345
18. HMEIETPEIRAIHDLLELLANKAKKPEQEQFVQAHPEVQWAKVEANKNGTFAVGKVKAYLKTLQA  -0.308
19. HMSVPEAAERAIDVAQMRRALGELSPEQQRVLELAYFGGLTRQEIARATGTPLGTVHTRARLGLQNLRARL  -0.299
20. HMKGKWKPIILWQLSKAPQSLSGLRHSIAGISQKMLIQHLNELIHFGFVVRTTFEGYPLKVEYDLTDRGR  -0.231
21. HMNISRESLIGQILATLNKNPEEGFNYKQIAKRLNITDSPGRQMISDLLRELSKHGSLQEISHGKYKIKV  -0.226
22. HMKRQATLQIGSKRFGMDDLYFKFTVPFEDSEKLGTATIEAYNLSPATRNSIKKGMPIILNAGYEGDI  -0.225
23. HMRTIPDALIGRPYESVETAIVLEGLQAKRTEVFHPTIRPGTVIRLEPTSGSELLRDGVVEIFVSQGPETT  -0.159
24. HMREEQELFRKLLEVNGIGPKVAAGMLAGGRPEDVVSAIRREDVAWLTKLPGIGRKTAQRIVLDLKDKLD  -0.0754
25. HMTLGENLQNLRKEAGLSQEQVAQQLFVSRQTVSKWENNLAEPGVENLKALARLYGVTLDRLVGM  -0.0572
26. HMYVSGVPAITSIERVSTPGRRVYAGYTTVPKVIGGMGVSILTTSRGVMTDAEARRQKVGGELLAKV  -0.0341
27. HMERYLLRDNIPNALHGERLDRVIAIMTGLSRSAVSALIKSNQVLRNGQIAQSISEKVVEGDELEVHLEP  -0.0223
28. HMRTKEGLASQLEKIPGIGPVKRKALLKKFGSIDAIAAASKEELMLTDGITSSLADAIRDYF  0.00122
29. HMQDFEEILKNAKIEDFKHTQTGEDLKVLKIEDKIEDFKGFNAYLVKNQIAYYSKFARGFVVKNIEKLQGV  0.0429
30. HMSENMSQDLAQWYRLQQALHPNLDAPELWATDLTSQQRTVRDQLIQQWAQEKRDSLWSEISGD  0.0433
31. HMDGSEYAGTVRLGDGTLQPVPRFETSNSETPKYLYLVMDVTHDPPVYILEHESAELKSVLGGLVLIGSYS  0.0759
32. HMEGVSSESVKEMLKSIIDGEDPHNPVSDQRITDILNSRGINISRRTVAKYRDELGIASSSRRKRY  0.0818
33. HMTTYSVDLGDIRAVADSDGKLVELTLHAAVTTHYSHSELADRLNLAFTALREEAQADYETRY  0.127
34. HMSDEVNTDKAFRAIDSTLNRNVKGIAPRDHTLLRNTMITYFKSNDYIDYDTMIQSTLENYKPTELEQDKM  0.165
35. HMLQGKVSFFNDEKGYGFIKDNNSKDSYFVHINKVEGEIAEGDKVTFELEKGPKGLVAANVKR  0.184
36. HMDDFITLVIHTPAHAQNLRNILESHGMEVRLEDFVSFKSPVAVAQRVKIRPKDLPLALKIIESGE  0.227
37. HMAALTADEAKQIALKHAGVAESDVQRLKVEQDRDDGRLLYEVEWDVGRTEYSYEIDANTGDILNYEKDV  0.254
38. HMGQKDYKTRLQEYFAKQGLKVNYEDTSHGPDHNKNFSTDVFLDGKIIGSGIGKSKKSSQQSAAKDALNIL  0.338
